Key:
[1] = tested on: NY-ESO 1G4 TCR transduced Jurkat cells; assay: TMG-expressing BCL-6/BCL-xL B cells with or without CD40L, co-culture with TCR Jurkat cells, CD69 (Example 7); assay type: cell-based, human; settings: BCL-6/BCL-xL immortalized B cells, two donors, 20 hours
Experimental: (§1) B cells from two healthy donors are isolated and immortalized by transduction with BCL-6/BCL-xL as described in Example 5 and 10 of this invention. In this Example, B cells are either transduced with BCL-6/BCL-xL alone or in combination with a CD40L transgene. After immortalization B cells are transduced with different TMG constructs encoding different numbers of 25mer polypeptides (1, 3, 12 or 40) and including LAMP1 signaling and transmembrane sequences. 96 hours post-transductions TMG-expressing B cells are enriched by antibiotic resistance selection as described in Examples 5 and 10. […]
(§2) TCR expressing Jurkat T cells specific for two NY-ESO-1 derived T cell epitopes (5B8 epitope SLLMWITQCFLPVF; SEQ ID NO: 3; MHC-class II restricted T cell epitope and 1G4 epitope SLLMWITQC; SEQ ID NO: 4; MHC-class I restricted T cell epitope) are generated as described in Examples 5 and 10. […] After co-culture, CD69 expression by TCR transduced Jurkat T cells is measured by flow cytometry.
(§3) FIG. 11A is Donor 1: NY-ESO 1G4 TCR transduced T cell reactivity towards TMG transduced BCL-6/BCL-XL immortalized B cells with or without CD40L. […] NY-ESO 1G4 TCR transduced Jurkat cells directed against one of the epitopes presented on Class I were then co-cultured with the B cells and reactivity was assessed by flowcytometry focusing on upregulation of CD69 on T cells. […]

[2] = tested on: NY-ESO 5B8 TCR transduced Jurkat cells; assay: as above; assay type: cell-based, human; settings: BCL-6/BCL-xL immortalized B cells, two donors, 20 hours
Experimental: as §1, §2, §3

B1: CD40L transgene: hCD40L transgene expressed in BCL-6/BCL-xL immortalized B cells (protein)
DNA: MIETYNQTSPRSAATGLPISMKIFMYLLTVFLITQMIGSALFAVYLHRRLDKIEDERNLHEDFVFMKTIQRCNTGERSLSLLNCEEIKSQFEGFVKDIMLNKEETKKENSFEMQKGDQNPQIAAHVISEASSKTTSVLQWAEKGYYTMSNNLVTLENGKQLTVKRQGLYYIYAQVTFCSNREASSQAPFIASLCLKSPGRFERILLRAANTHSSAKPCGQQSIHLGGVFELQPGASVFVNVTDPSQVSHGTGFTSFGLLKL
- MHC-class I antigen-presentation (CD69 expression by TCR transduced Jurkat T cells) [1]: can increase
- MHC-class II antigen presentation (CD69 expression by TCR transduced Jurkat T cells) [2]: can increase
